± gives the uncertainty stated by the source.
Test: protein stability index of a GFP-peptide fusion (yeast GPS) (PSI 1-4); higher = more stable; sorted into four equal gates, so the index is relative within each strain
Outline: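 The protein stability index combines read frequencies across sorting gates, each weighted by its gate number and then summed. To obtain those frequencies, a pooled yeast library of GFP fusions to tiled 17-residue yeast protein peptides, on a plasmid also expressing Cherry, was grown to mid-log phase in leucine-free medium. The cells were sorted into four equal gates by GFP/Cherry ratio before plasmid amplification by PCR and Illumina sequencing.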

Sequence | protein stability index (doa10∆) | protein stability index (pdr5∆) | protein stability index (san1∆) | protein stability index (ubr1∆)
KNYPEYFLKVTFLKYFG [IRR1] | 1.33 ± 0.085 | 1.54 ± 0.052 | 1.22 ± 0.14 | 1.49 ± 0.046
PHATATEKEPVPAVVDD [SNF6] | 3.24 ± 0.11 | 3.08 ± 0.068 | 2.82 ± 0.14 | 3.18 ± 0.087
LRPGQEISLKAHCILGI [RPC40] | 2.12 ± 0.14 | 2.49 ± 0.13 | 2.14 ± 0.099 | 1.82 ± 0.12
EEDADQEESFSLNLGIG [SRB8] | 3.2 ± 0.14 | 3.01 ± 0.27 | 2.94 ± 0.17 | 
FQVSNVISLGPNLATFI [YJL039C/NUP192] | 1.76 ± 0.14 | 1.99 ± 0.11 |  | 2.17 ± 0.054
GTNKDMILKLVCQVTKF [ECM29] | 1.55 ± 0.058 | 1.26 ± 0.037 | 1.28 ± 0.13 | 1.59 ± 0.077
WQYIVIDEAHRIKNEQS [ISW2] | 1.48 ± 0.075 | 1.64 ± 0.08 | 1.23 ± 0.11 | 2.24 ± 0.071
AIQLDYSTANEYIIAAI [RPN3] | 2.24 ± 0.058 | 2.09 ± 0.073 | 2.32 ± 0.094 | 2.47 ± 0.056
SDVLRFLQRVRVWEYRQ [RPL15A] | 1.34 ± 0.083 | 1.88 ± 0.066 | 1.71 ± 0.083 | 2.01 ± 0.054
SQLPITPMTRISELPPQ [YGL172W/NUP49] | 2.35 ± 0.057 | 2.67 ± 0.047 | 2.13 ± 0.051 | 2.71 ± 0.041
LGIEAARYSIIREINYT [RPO31] | 1.76 ± 0.13 | 1.66 ± 0.12 | 1.31 ± 0.24 | 1.53 ± 0.12
AKRHRKILRDNIQGITK [HHF1] | 3.01 ± 0.094 | 3.44 ± 0.098 | 3.21 ± 0.058 | 3.07 ± 0.069
ATGISGSVSEETELFEP [ECM29] | 3.22 ± 0.083 | 3.16 ± 0.054 | 3 ± 0.08 | 3.04 ± 0.067
NTATNALRPSDIFGANA [YOR098C/NUP1] | 3.08 ± 0.069 | 3.24 ± 0.074 | 3.27 ± 0.061 | 3.2 ± 0.074
EQKGQMAKKEGTPKTDS [MED4] | 3.22 ± 0.21 | 3 ± 0.22 | 3.13 ± 0.19 | 
ADEDDEDAKYVINLKQI [RPT1] | 1.99 ± 0.13 | 2.66 ± 0.16 | 1.8 ± 0.2 | 2.61 ± 0.085
RAASVGSLKLIELLCGL [NAS6] | 2.18 ± 0.075 | 2.13 ± 0.11 | 1.94 ± 0.11 | 1.83 ± 0.063
VVEPEHMADAKIMPKDI [SIR4] | 3.28 ± 0.1 | 3.35 ± 0.071 | 3.33 ± 0.085 | 3.12 ± 0.081
SAGLDSAQQNLASSFVN [RPN1] |  | 2.96 ± 0.16 | 2.79 ± 0.17 | 3.2 ± 0.2
YVLYAKIVVLSRTGPVF [RRP43] | 1.29 ± 0.097 | 1.15 ± 0.077 | 1.11 ± 0.16 | 1.19 ± 0.06
TEIISTLSNGLIASHYG [BRR2] | 2.55 ± 0.076 | 2.79 ± 0.096 | 2.42 ± 0.1 | 2.33 ± 0.062
GLLDLERVIVVTGFAEV [FAS2] | 2.9 ± 0.17 | 2.32 ± 0.095 | 2.21 ± 0.17 | 2.16 ± 0.11
LSQQQKDAQKKDIEKLT [YIL149C/MLP2] | 2.79 ± 0.079 | 2.95 ± 0.069 | 2.78 ± 0.064 | 2.97 ± 0.075
NLQTVHFGHCFNITDNG [GRR1] | 1.22 ± 0.091 |  |  | 
EFLINEGTPINNVYFAA [RPN14] | 2.33 ± 0.07 | 2.17 ± 0.052 | 1.91 ± 0.087 | 1.94 ± 0.047
KLSKVQLYEDLCRYEDT [MED4] | 2.88 ± 0.069 | 3.29 ± 0.12 | 3.32 ± 0.11 | 3.21 ± 0.071
VQLKDANSQIQAYEEII [YIL149C/MLP2] | 2.69 ± 0.12 | 3.5 ± 0.17 | 3.37 ± 0.23 | 3.45 ± 0.12

Sequence | protein stability index (doa10∆) | protein stability index (pdr5∆) | protein stability index (san1∆) | protein stability index (ubr1∆)
TIETFNEAALVVNITHH [RPB5] | 1.69 ± 0.11 | 1.92 ± 0.061 | 1.64 ± 0.16 | 1.58 ± 0.13
LFSEKTIRYLMQKQHEM [SNF6] | 2.63 ± 0.044 | 2.55 ± 0.045 | 2.44 ± 0.069 | 2.66 ± 0.034
ALDYLIPPPMPKNQQYR [MED7] | 2.53 ± 0.08 | 2.58 ± 0.1 | 2.5 ± 0.096 | 2.6 ± 0.078
IYDDWLDRISSYTAFSR [PRP8] | 2.16 ± 0.05 | 1.75 ± 0.044 | 1.92 ± 0.073 | 2.24 ± 0.039
SETDKRQFLHELRRPGV [RPO31] | 1.89 ± 0.056 | 1.73 ± 0.059 | 1.57 ± 0.16 | 1.57 ± 0.069
LKYSKRRSLKKQGRIKN [CSN12] | 3.01 ± 0.064 | 3.27 ± 0.069 | 3.21 ± 0.098 | 3.25 ± 0.036
ILVMETSEEQTKFLAKN [SWP82] | 3.01 ± 0.094 | 2.91 ± 0.11 | 2.94 ± 0.048 | 3 ± 0.092
LDPLARVSKDKKSGSLT [FAS2] | 3.31 ± 0.1 | 3.2 ± 0.096 | 3.22 ± 0.084 | 3.14 ± 0.16
GFNSIWKIPQNDIPQTE [SSN2] | 3.09 ± 0.19 | 3.28 ± 0.28 | 3.18 ± 0.15 | 3.25 ± 0.076
SSKKVFSSNLSYANHLE [YOR098C/NUP1] | 2.31 ± 0.067 | 2.31 ± 0.064 | 2.1 ± 0.078 | 2.48 ± 0.047
SSKPAFNLISNAGTEKE [YLR335W/NUP2] | 3.13 ± 0.094 | 2.95 ± 0.098 | 3.13 ± 0.065 | 3.07 ± 0.061
KPALKVSKEGLYQLVDI [YMR129W/POM152] | 3.18 ± 0.13 | 3.1 ± 0.12 | 3.14 ± 0.074 | 3.02 ± 0.082
HIKKLLHQYYGDDESKI [FAS1] | 2.24 ± 0.084 | 2.9 ± 0.085 | 3.07 ± 0.074 | 3 ± 0.12
GRPRYDTFGEGIIITDQ [BRR2] | 3.02 ± 0.15 | 2.85 ± 0.14 | 2.62 ± 0.14 | 3.11 ± 0.11
LWKLLSTVKVSDLNLTD [YLR018C/POM34] | 2.35 ± 0.065 | 2.26 ± 0.044 | 2.3 ± 0.06 | 2.52 ± 0.039
NTEGSVVYEDSLELEKV [SNF2] | 2.98 ± 0.063 | 2.94 ± 0.062 | 2.48 ± 0.095 | 3.01 ± 0.095
QDYYIIGANIYQSPTIF [MED6] | 2.33 ± 0.056 | 2.42 ± 0.055 | 2.15 ± 0.07 | 2.46 ± 0.029
TRAKIGGLNDPRLGSID [RPO21] | 3.03 ± 0.11 | 2.22 ± 0.077 | 2.58 ± 0.098 | 2.37 ± 0.083
VYREVCAACHSLDRVAW [CYT1] | 3.36 ± 0.26 | 3.04 ± 0.12 | 2.71 ± 0.17 | 2.86 ± 0.13
TVSILQESSSLRLLEVT [POP8] | 2.2 ± 0.055 | 2.38 ± 0.048 | 2.4 ± 0.083 | 2.33 ± 0.033
GPVGKECADLWPRVASN [RPL23A] | 3.2 ± 0.13 | 3.3 ± 0.11 | 3.17 ± 0.1 | 3.23 ± 0.057
VNRLLSVIPLKGRYAPE [RRP4] | 1.85 ± 0.17 | 1.68 ± 0.087 | 2.33 ± 0.15 | 1.86 ± 0.055
IRNINVQDALLTNQLYK [SNF2] | 2.84 ± 0.07 | 2.67 ± 0.064 | 3.12 ± 0.05 | 3.24 ± 0.075
SEPIDLIIIEKKQKLIE [ITC1] |  |  | 2.87 ± 0.18 | 2.69 ± 0.13
DSGIGSNGSGIVAAGGG [CSL4] | 3.45 ± 0.066 | 3.34 ± 0.07 | 3.35 ± 0.052 | 3.42 ± 0.058
LAVKVHGGSRYATKDGV [QCR2] | 1.62 ± 0.11 | 1.18 ± 0.1 | 1.17 ± 0.26 | 1.07 ± 0.089

Source: the supplement of paper PMC9732359
